# T1: Recombinant human TRAF2 protein (human, UniProt Q12933 1-501)
# T1 sequence (looked up): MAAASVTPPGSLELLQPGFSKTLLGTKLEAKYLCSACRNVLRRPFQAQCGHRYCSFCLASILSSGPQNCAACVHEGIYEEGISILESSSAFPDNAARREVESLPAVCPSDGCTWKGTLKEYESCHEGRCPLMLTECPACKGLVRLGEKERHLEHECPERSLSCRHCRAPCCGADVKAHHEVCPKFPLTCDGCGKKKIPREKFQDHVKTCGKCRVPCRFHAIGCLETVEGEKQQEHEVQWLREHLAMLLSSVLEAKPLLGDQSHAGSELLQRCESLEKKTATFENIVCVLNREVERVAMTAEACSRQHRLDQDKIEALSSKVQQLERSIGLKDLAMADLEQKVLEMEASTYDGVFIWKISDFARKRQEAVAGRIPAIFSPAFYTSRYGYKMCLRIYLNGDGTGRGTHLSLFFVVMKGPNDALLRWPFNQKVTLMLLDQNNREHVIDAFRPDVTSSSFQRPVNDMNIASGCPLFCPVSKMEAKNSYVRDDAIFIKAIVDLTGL
# B1: Recombinant human STING protein (natural protein, UniProt Q86WV6 135-379, looked up)
# chain: GLKGLAPAEISAVCEKGNFNVAHGLAWSYYIGYLRLILPELQARIRTYNQHYNNLLRGAVSQRLYILLPLDCGVPDNLSMADPNIRFLDKLPQQTGDHAGIKDRVYSNSIYELLENGQRAGTCVLEYATPLQTLFAMSQYSQAGFSREDRLEQAKLFCRTLEDILADAPESQNNCRLIAYQEPADDSSFSLSQEVLRHLRQEEKEEVTVGSLKTSAVPSTSTMSQEPELLISGMEKPLPLRTDFS
# Biological target: T1, Recombinant human TRAF2 protein
# Assay: SPR
binder,measurement,value
B1,Kd,502 nM
